Laboratory results taken from PMC7367873, “Dissecting the sequence determinants for dephosphorylation by the catalytic subunits of phosphatases PP1 and PP2A” (Nature Communications, 2020).

B1: DHX15 (protein, UniProt O43143 1-795, looked up)
ATP-dependent RNA helicase …: MSKRHRLDLGEDYPSGKKRAGTDGKDRDRDRDREDRSKDRDRERDRGDREREREKEKEKELRASTNAMLISAGLPPLKASHSAHSTHSAHSTHSTHSAHSTHAGHAGHTSLPQCINPFTNLPHTPRYYDILKKRLQLPVWEYKDRFTDILVRHQSFVLVGETGSGKTTQIPQWCVEYMRSLPGPKRGVACTQPRRVAAMSVAQRVADEMDVMLGQEVGYSIRFEDCSSAKTILKYMTDGMLLREAMNDPLLERYGVIILDEAHERTLATDILMGVLKEVVRQRSDLKVIVMSATLDAGKFQIYFDNCPLLTIPGRTHPVEIFYTPEPERDYLEAAIRTVIQIHMCEEEEGDLLLFLTGQEEIDEACKRIKREVDDLGPEVGDIKIIPLYSTLPPQQQQRIFEPPPPKKQNGAIGRKVVVSTNIAETSLTIDGVVFVIDPGFAKQKVYNPRIRVESLLVTAISKASAQQRAGRAGRTRPGKCFRLYTEKAYKTEMQDNTYPEILRSNLGSVVLQLKKLGIDDLVHFDFMDPPAPETLMRALELLNYLAALNDDGDLTELGSMMAEFPLDPQLAKMVIASCDYNCSNEVLSITAMLSVPQCFVRPTEAKKAADEAKMRFAHIDGDHLTLLNVYHAFKQNHESVQWCYDNFINYRSLMSADNVRQQLSRIMDRFNLPRRSTDFTSRDYYINIRKALVTGYFMQVAHLERTGHYLTVKDNQVVQLHPSTVLDHKPEWVLYNEFVLTTKNYIRTCTDIKPEWLVKIAPQYYDMSNFPQCEAKRQLDRIIAKLQSKEYSQY
B2: HNRNPC (protein, UniProt P07910 2-306, looked up)
Heterogeneous nuclear …: ASNVTNKTDPRSMNSRVFIGNLNTLVVKKSDVEAIFSKYGKIVGCSVHKGFAFVQYVNERNARAAVAGEDGRMIAGQVLDINLAAEPKVNRGKAGVKRSAAEMYGSVTEHPSPSPLLSSSFDLDYDFQRDYYDRMYSYPARVPPPPPIARAVVPSKRQRVSGNTSRRGKSGFNSKSGQRGSSKSGKLKGDDLQAIKKELTQIKQKVDSLLENLEKIEKEQSKQAVEMKNDKSEEEQSSSSVKKDETNVKMESEGGADDSAEEGDLLDDDDNEDRGDDQLELIKDDEKEAEEGEDDRDSANGEDDS
B3: MATR3 (protein, UniProt P43243 2-847, looked up)
Matrin-3: SKSFQQSSLSRDSQGHGRDLSAAGIGLLAAATQSLSMPASLGRMNQGTARLASLMNLGMSSSLNQQGAHSALSSASTSSHNLQSIFNIGSRGPLPLSSQHRGDADQASNILASFGLSARDLDELSRYPEDKITPENLPQILLQLKRRRTEEGPTLSYGRDGRSATREPPYRVPRDDWEEKRHFRRDSFDDRGPSLNPVLDYDHGSRSQESGYYDRMDYEDDRLRDGERCRDDSFFGETSHNYHKFDSEYERMGRGPGPLQERSLFEKKRGAPPSSNIEDFHGLLPKGYPHLCSICDLPVHSNKEWSQHINGASHSRRCQLLLEIYPEWNPDNDTGHTMGDPFMLQQSTNPAPGILGPPPPSFHLGGPAVGPRGNLGAGNGNLQGPRHMQKGRVETSRVVHIMDFQRGKNLRYQLLQLVEPFGVISNHLILNKINEAFIEMATTEDAQAAVDYYTTTPALVFGKPVRVHLSQKYKRIKKPEGKPDQKFDQKQELGRVIHLSNLPHSGYSDSAVLKLAEPYGKIKNYILMRMKSQAFIEMETREDAMAMVDHCLKKALWFQGRCVKVDLSEKYKKLVLRIPNRGIDLLKKDKSRKRSYSPDGKESPSDKKSKTDGSQKTESSTEGKEQEEKSGEDGEKDTKDDQTEQEPNMLLESEDELLVDEEEAAALLESGSSVGDETDLANLGDVASDGKKEPSDKAVKKDGSASAAAKKKLKKVDKIEELDQENEAALENGIKNEENTEPGAESSENADDPNKDTSENADGQSDENKDDYTIPDEYRIGPYQPNVPVGIDYVIPKTGFYCKLCSLFYTNEEVAKNTHCSSLPHYQKLKKFLNKLAEERRQKKET
B4: MAP4 (protein, UniProt P27816 2-1152, looked up)
Microtubule-associated …: ADLSLADALTEPSPDIEGEIKRDFIATLEAEAFDDVVGETVGKTDYIPLLDVDEKTGNSESKKKPCSETSQIEDTPSSKPTLLANGGHGVEGSDTTGSPTEFLEEKMAYQEYPNSQNWPEDTNFCFQPEQVVDPIQTDPFKMYHDDDLADLVFPSSATADTSIFAGQNDPLKDSYGMSPCNTAVVPQGWSVEALNSPHSESFVSPEAVAEPPQPTAVPLELAKEIEMASEERPPAQALEIMMGLKTTDMAPSKETEMALAKDMALATKTEVALAKDMESPTKLDVTLAKDMQPSMESDMALVKDMELPTEKEVALVKDVRWPTETDVSSAKNVVLPTETEVAPAKDVTLLKETERASPIKMDLAPSKDMGPPKENKKETERASPIKMDLAPSKDMGPPKENKIVPAKDLVLLSEIEVAQANDIISSTEISSAEKVALSSETEVALARDMTLPPETNVILTKDKALPLEAEVAPVKDMAQLPETEIAPAKDVAPSTVKEVGLLKDMSPLSETEMALGKDVTPPPETEVVLIKNVCLPPEMEVALTEDQVPALKTEAPLAKDGVLTLANNVTPAKDVPPLSETEATPVPIKDMEIAQTQKGISEDSHLESLQDVGQSAAPTFMISPETVTGTGKKCSLPAEEDSVLEKLGERKPCNSQPSELSSETSGIARPEEGRPVVSGTGNDITTPPNKELPPSPEKKTKPLATTQPAKTSTSKAKTQPTSLPKQPAPTTIGGLNKKPMSLASGLVPAAPPKRPAVASARPSILPSKDVKPKPIADAKAPEKRASPSKPASAPASRSGSKSTQTVAKTTTAAAVASTGPSSRSPSTLLPKKPTAIKTEGKPAEVKKMTAKSVPADLSRPKSTSTSSMKKTTTLSGTAPAAGVVPSRVKATPMPSRPSTTPFIDKKPTSAKPSSTTPRLSRLATNTSAPDLKNVRSKVGSTENIKHQPGGGRAKVEKKTEAAATTRKPESNAVTKTAGPIASAQKQPAGKVQIVSKKVSYSHIQSKCGSKDNIKHVPGGGNVQIQNKKVDISKVSSKCGSKANIKHKPGGGDVKIESQKLNFKEKAQAKVGSLDNVGHLPAGGAVKTEGGGSEAPLCPGPPAGEEPAISEAAPEAGAPTSASGLNGHPTLSGGGDQREAQTLDSQIQETSI
B5: BASP1 (protein, UniProt P80723 2-227, looked up)
Brain acid soluble protein 1: GGKLSKKKKGYNVNDEKAKEKDKKAEGAATEEEGTPKESEPQAAAEPAEAKEGKEKPDQDAEGKAEEKEGEKDAAAAKEEAPKAEPEKTEGAAEAKAEPPKAPEQEQAAPGPAAGGEAPKAAEAAAAPAESAAPAAGEEPSKEEGEPKKTEAPAAPAAQETKSDGAPASDSKPGSSEAAPSSKETPAATEAPSSTPKAQGPAASAEEPKPVEAPAANSDQTVTVKE
B6: GNAS (protein, UniProt P63092 2-394, looked up)
Guanine nucleotide-binding …: GCLGNSKTEDQRNEEKAQREANKKIEKQLQKDKQVYRATHRLLLLGAGESGKSTIVKQMRILHVNGFNGEGGEEDPQAARSNSDGEKATKVQDIKNNLKEAIETIVAAMSNLVPPVELANPENQFRVDYILSVMNVPDFDFPPEFYEHAKALWEDEGVRACYERSNEYQLIDCAQYFLDKIDVIKQADYVPSDQDLLRCRVLTSGIFETKFQVDKVNFHMFDVGGQRDERRKWIQCFNDVTAIIFVVASSSYNMVIREDNQTNRLQEALNLFKSIWNNRWLRTISVILFLNKQDLLAEKVLAGKSKIEDYFPEFARYTTPEDATPEPGEDPRVTRAKYFIRDEFLRISTASGDGRHYCYPHFTCAVDTENIRRVFNDCRDIIQRMHLRQYELL
B7: DCD (protein, UniProt P81605 20-110, looked up)
Dermcidin: YDPEAASAPGSGNPCHEASAAQKENAGEDPGLARQAPKPRKQRSSLLEKGLDGAKKAVGGLGKLGKDAVEDLESVGKGAVHDVKDVLDSVL
B8: SRPRB (protein, UniProt Q9Y5M8 1-271, looked up)
Signal recognition particle …: MASADSRRVADGGGAGGTFQPYLDTLRQELQQTDPTLLSVVVAVLAVLLTLVFWKLIRSRRSSQRAVLLVGLCDSGKTLLFVRLLTGLYRDTQTSITDSCAVYRVNNNRGNSLTLIDLPGHESLRLQFLERFKSSARAIVFVVDSAAFQREVKDVAEFLYQVLIDSMGLKNTPSFLIACNKQDIAMAKSAKLIQQQLEKELNTLRVTRSAAPSTLDSSSTAPAQLGKKGKEFEFSQLPLKVEFLECSAKGGRGDVGSADIQDLEKWLAKIA
B9: SPATS2 (protein, UniProt Q86XZ4 1-545, looked up)
Spermatogenesis-associated …: MSRKQNQKDSSGFIFDLQSNTVLAQGGAFENMKEKINAVRAIVPNKSNNEIILVLQHFDNCVDKTVQAFMEGSASEVLKEWTVTGKKKNKKKKNKPKPAAEPSNGIPDSSKSVSIQEEQSAPSSEKGGMNGYHVNGAINDTESVDSLSEGLETLSIDARELEDPESAMLDTLDRTGSMLQNGVSDFETKSLTMHSIHNSQQPRNAAKSLSRPTTETQFSNMGMEDVPLATSKKLSSNIEKSVKDLQRCTVSLARYRVVVKEEMDASIKKMKQAFAELESCLMDREVALLAEMDKVKAEAMEILLSRQKKAELLKKMTHVAVQMSEQQLVELRADIKHFVSERKYDEDLGRVARFTCDVETLKKSIDSFGQVSHPKNSYSTRSRCSSVTSVSLSSPSDASAASSSTCASPPSLTSANKKNFAPGETPAAIANSSGQPYQPLREVLPGNRRGGQGYRPQGQKSNDPMNQGRHDSMGRYRNSSWYSSGSRYQSAPSQAPGNTIERGQTHSAGTNGTGVSMEPSPPTPSFKKGLPQRKPRTSQTEAVNS
B10: BRIX1 (protein, UniProt Q8TDN6 1-353, looked up)
Ribosome biogenesis protein …: MAATKRKRRGGFAVQAKKPKRNEIDAEPPAKRHATAEEVEEEERDRIPGPVCKGKWKNKERILIFSSRGINFRTRHLMQDLRMLMPHSKADTKMDRKDKLFVINEVCEMKNCNKCIYFEAKKKQDLYMWLSNSPHGPSAKFLVQNIHTLAELKMTGNCLKGSRPLLSFDPAFDELPHYALLKELLIQIFSTPRYHPKSQPFVDHVFTFTILDNRIWFRNFQIIEEDAALVEIGPRFVLNLIKIFQGSFGGPTLYENPHYQSPNMHRRVIRSITAAKYREKQQVKDVQKLRKKEPKTLLPHDPTADVFVTPAEEKPIEIQWVKPEPKVDLKARKKRIYKRQRKMKQRMDSGKTK
B11: VAPA (protein, UniProt Q9P0L0 2-249, looked up)
Vesicle-associated membrane …: ASASGAMAKHEQILVLDPPTDLKFKGPFTDVVTTNLKLRNPSDRKVCFKVKTTAPRRYCVRPNSGIIDPGSTVTVSVMLQPFDYDPNEKSKHKFMVQTIFAPPNTSDMEAVWKEAKPDELMDSKLRCVFEMPNENDKLNDMEPSKAVPLNASKQDGPMPKPHSVSLNDTETRKLMEECKRLQGEMMKLSEENRHLRDEGLRLRKVAHSDKPGSTSTASFRDNVTSPLPSLLVVIAAIFIGFFLGKFIL

Each molecule was assayed on GFP-14-3-3β and its binding proteins (assay: GFP-14-3-3β co-IP with LC-MS/MS label-free quantification, untreated versus PP1c-treated). Conditions: GFP-14-3-3β co-IP LC-MS/MS; PP1 vs untreated; student's t-test; label-free quantification, 3 replicates each.
Parameters: species or system human

Molecule	Difference (log2), PP1 vs untreated [log2]
B1	-0.5557
B2	-0.69
B3	-0.7331
B4	-0.5793
B5	-0.7159
B6	-0.7154
B7	-0.6713
B8	-0.6831
B9	-0.5886
B10	-0.6423

Same assay, conditions: log2 difference; pairwise comparison PP1 vs untreated, label-free quantification, 3 replicates each

Molecule	Difference (log2), PP1 vs untreated
B11	1.6514

The molecules below were run on GFP-14-3-3β (assay: GFP-14-3-3β co-IP with LC-MS/MS, untreated GFP-14-3-3β versus GFP control (14-3-3 interactome)). Conditions: GFP-14-3-3β co-IP LC-MS/MS; untreated vs GFP; student's t-test; label-free quantification, 3 replicates each.
Type: binding, human

Molecule	Difference (log2), untreated vs GFP [log2]
B1	1.871
B2	1.297
B3	1.234
B4	0.9373
B5	-1.2737
B6	0.1054
B7	-1.7359
B8	1.397
B9	1.275
B10	1.65

Same assay, conditions: log2 difference; pairwise comparison untreated vs GFP, label-free quantification, 3 replicates each

Molecule	Difference (log2), untreated vs GFP
B11	-1.034
